Ends that are not written are not given here. * marks the point of attachment. Biotin = O=C1N[C@H]2[C@H](CS[C@H]2CCCCC(=O)*)N1
Legend:
[1] = molecular target: GST-NeDLG PDZ domain fusion protein (presynaptic protein sao102, neuroendocrine-dlg; PDZ domains 1-2 of 3) [GST: P08515]; assay: G assay, peptide titrated on immobilized GST-PDZ, saturation fit (apparent affinity)
[2] = molecular target: GST-PSD95 PDZ domain fusion protein (human post-synaptic density protein 95 AA387-724; PDZ domains 1-3 of 3) (human) [GST: P08515]; assay: as above
[3] = molecular target: GST polypeptide alone (not a fusion protein) [GST: P08515]; assay: G assay, immobilized GST alone (background control)
[4] = molecular target: GST-DLG1 PDZ domain fusion protein (human homolog of Drosophila discs large protein AA275-477; PDZ domains 1-2 of 3) (human) [GST: P08515]; assay: G assay, peptide titrated on immobilized GST-PDZ, saturation fit (apparent affinity)
Sequence of GST-DLG1 PDZ domain fusion protein (human homolog of Drosophila discs large protein AA275-477; PDZ domains 1-2 of 3) (human) [GST: P08515] (P08515 1-218, tags or fused parts left off): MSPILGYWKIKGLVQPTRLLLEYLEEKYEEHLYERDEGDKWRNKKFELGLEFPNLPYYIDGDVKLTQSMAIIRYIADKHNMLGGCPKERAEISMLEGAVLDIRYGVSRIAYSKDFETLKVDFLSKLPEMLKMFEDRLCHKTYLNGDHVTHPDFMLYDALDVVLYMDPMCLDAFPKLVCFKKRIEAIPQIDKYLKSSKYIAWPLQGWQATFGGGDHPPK

Sequence of GST polypeptide alone (not a fusion protein) [GST: P08515] (P08515 whole entry, the tested form may be a part): as the sequence (P08515 1-218, tags or fused parts left off) above
Sequence of GST-NeDLG PDZ domain fusion protein (presynaptic protein sao102, neuroendocrine-dlg; PDZ domains 1-2 of 3) [GST: P08515] (P08515 1-218, tags or fused parts left off): as above
Sequence of GST-PSD95 PDZ domain fusion protein (human post-synaptic density protein 95 AA387-724; PDZ domains 1-3 of 3) (human) [GST: P08515] (P08515 1-218, tags or fused parts left off): as above

Row | Binder | Kd [1] | Kd [2] | OD (binding to GST alone) [3] | Kd [4]
1 | ISGTPTSTMVHGMTSSSSVV (modifications not checked) [CLASP-2 C-terminal PL peptide AA2L (C-terminal 20 amino acids), biotinylated] | 7.5 µM | 45 µM | < 0.2 OD units | –
2 | Biotin-KDITSDSENSNFRNEIQSLV [CD95 (Apo-1/Fas) C-terminal PL peptide AA13L, biotinylated] | – | – | – | 54 µM
